Assay [1] deals with T1, human GLP-1 receptor (human, UniProt P43220 24-463).
T1 construct: whole, on cells; also called hGLP-1R; hGLP1R
The experiment in a line: [125I]-GLP-1 competition SPA, hGLP-1R membranes. Summed up:
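Competition binding in 25 mM HEPES pH 7.4, 2.5 mM CaCl₂, 1 mM MgCl₂, 0.1% bacitracin, 0.003% TWEEN-20, EDTA-free protease inhibitors. IC₅₀ from four-parameter nonlinear fit; Kᵢ given as geometric mean ± SEM, n = independent replicates on different days.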

The target in assay [2] is T2, human GIP receptor (human, UniProt P48546 22-466).
T2 construct: whole, on cells; also called hGIPR; hGIP-R
T2 sequence (looked up): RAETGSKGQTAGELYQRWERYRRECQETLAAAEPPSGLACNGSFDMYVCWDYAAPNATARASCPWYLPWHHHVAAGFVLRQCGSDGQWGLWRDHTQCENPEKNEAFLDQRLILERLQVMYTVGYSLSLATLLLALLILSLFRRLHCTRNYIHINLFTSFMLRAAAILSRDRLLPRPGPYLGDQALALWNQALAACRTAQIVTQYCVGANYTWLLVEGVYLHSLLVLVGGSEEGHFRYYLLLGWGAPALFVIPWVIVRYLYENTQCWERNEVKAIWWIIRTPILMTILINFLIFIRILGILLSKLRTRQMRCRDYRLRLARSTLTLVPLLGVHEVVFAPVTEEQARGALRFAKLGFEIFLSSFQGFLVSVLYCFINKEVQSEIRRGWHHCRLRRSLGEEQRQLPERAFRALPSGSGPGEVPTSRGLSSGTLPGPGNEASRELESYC
The experiment in a line: [125I]-GIP competition SPA, hGIPR membranes.

The target of assay [3] is T3, human glucagon receptor (human, UniProt P47871 26-477).
T3 construct: whole, on cells; also called hGcgR; GcgR
T3 sequence (P47871 26-477): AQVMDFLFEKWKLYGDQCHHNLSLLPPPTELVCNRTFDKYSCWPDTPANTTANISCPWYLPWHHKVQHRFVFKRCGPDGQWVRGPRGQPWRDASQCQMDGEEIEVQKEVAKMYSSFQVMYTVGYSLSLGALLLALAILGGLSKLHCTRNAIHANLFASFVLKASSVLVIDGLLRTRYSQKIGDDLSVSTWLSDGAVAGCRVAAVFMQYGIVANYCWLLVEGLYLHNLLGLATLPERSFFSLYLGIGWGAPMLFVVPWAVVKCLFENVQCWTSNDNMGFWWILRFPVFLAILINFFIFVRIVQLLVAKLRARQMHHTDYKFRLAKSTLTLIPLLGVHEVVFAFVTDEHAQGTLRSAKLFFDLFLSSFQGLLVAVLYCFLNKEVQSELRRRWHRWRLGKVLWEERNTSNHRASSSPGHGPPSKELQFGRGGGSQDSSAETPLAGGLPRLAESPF
The experiment in a line: [125I]-Gcg competition SPA, hGcgR membranes.

Usually Ki stands for the dissociation constant of the complex between target and ligand, obtained from inhibition or displacement. The low end stands for tighter binding, the high end for weaker binding.

B1: Example 300 (peptide)
peptide: YXEGTFTSDYSIXLDKKAQXAFIEYLIEGGPSSG
modifications: Aib2; αMeL13; K17((2-[2-(2-Amino-ethoxy)-ethoxy]-acetyl)2-(γ-Glu)-CO-(CH2)16-CO2H); Aib20; C-terminal NH2
Regarding B1, the Ki in assay [1] worked out at 2.13 nM; in assay [2], 0.0504 nM; in assay [3], 251 nM.

B2: Example 301 (peptide)
peptide: YXEGTXTSDYSILLDKKAQXAFIEYLIEGGPSSG
modifications: Aib2; αMeF6; K17((2-[2-(2-Amino-ethoxy)-ethoxy]-acetyl)2-(γ-Glu)-CO-(CH2)16-CO2H); Aib20; C-terminal NH2
notes: also called GG-650
Take B2: the Ki came out at 0.875 nM in assay [1], 0.0273 nM in assay [2] and 44.4 nM in assay [3].

B3: Example 303 (peptide)
peptide: YXEGTFTSDYSIXLDEKAQXAFIEYLIEGGPSSG
modifications: Aib2; αMeL13; K17((2-[2-(2-Amino-ethoxy)-ethoxy]-acetyl)2-(γ-Glu)-CO-(CH2)16-CO2H); Aib20; C-terminal NH2
For the molecule B3, the inhibition constant (Ki) in assay [1] stood at 3.69 nM; in assay [2] it was 0.058 nM; in assay [3] it was 502 nM.

B4: Example 305 (peptide)
peptide: YXEGTFTSDYSIXLDKKAQXAFIEYLIAGGPSSG
modifications: Aib2; αMeL13; K17((2-[2-(2-Amino-ethoxy)-ethoxy]-acetyl)2-(γ-Glu)-CO-(CH2)16-CO2H); Aib20; C-terminal NH2
B4: the results for the Ki in assay [1], in assay [2] and in assay [3] were 0.83 nM, 0.025 nM and 352 nM, respectively.

B5: Example 324 (peptide)
peptide: YXEGTFTSDYSIXLDKKAQXAFIEYLIAGGPSSGAPPPS
modifications: Aib2; αMeL13; K17((2-[2-(2-Amino-ethoxy)-ethoxy]-acetyl)2-(γ-Glu)-CO-(CH2)18-CO2H); Aib20; C-terminal NH2
For the molecule B5, the results for the Ki in assay [1], in assay [2] and in assay [3] were 0.609 nM, 0.0278 nM and 449 nM, respectively.

B6: Example 340 (peptide)
peptide: XXEGTFTSDYSIXLDKKAQXAFIEYLIAGGPSSGAPPPS
modifications: D-Tyr1; Aib2; αMeL13; K17((2-[2-(2-Amino-ethoxy)-ethoxy]-acetyl)2-(γ-Glu)-CO-(CH2)18-CO2H); Aib20; C-terminal NH2
For B6, the inhibitory constant (Ki) in assay [1] stood at 2.08 nM; in assay [2], 0.0507 nM; in assay [3], 250 nM.

B7: Example 293 (peptide)
peptide: XXEGTFTSDYSIXLDXKAQXEFIEXLIAGGPSSGAPPPS
modifications: D-Tyr1; Aib2; αMeL13; Orn16; K17((2-[2-(2-Amino-ethoxy)-ethoxy]-acetyl)2-(γ-Glu)-CO-(CH2)18-CO2H); Aib20; αMeY25; C-terminal NH2
B7: the Ki in assay [1] was 1.64 nM; in assay [2] it was 0.0775 nM; in assay [3], 668 nM.

B8: Example 292 (peptide)
peptide: XXEGTFTSDYSIXLDKKAQXEFIEXLIAGGPSSGAPPPS
modifications: D-Tyr1; Aib2; αMeL13; K17((2-[2-(2-Amino-ethoxy)-ethoxy]-acetyl)2-(γ-Glu)-CO-(CH2)18-CO2H); Aib20; αMeY25; C-terminal NH2
Consider B8, for which the Ki was determined as 1.19 nM in assay [1], 0.0547 nM in assay [2] and 595 nM in assay [3].

B9: Example 327 (peptide)
peptide: FXEGTFTSDYSIXLDKKAQXAFIEYLIEGGPSSGAPPPS
modifications: Aib2; αMeL13; K17((2-[2-(2-Amino-ethoxy)-ethoxy]-acetyl)2-(γ-Glu)-CO-(CH2)18-CO2H); Aib20; C-terminal NH2
Turning to B9, the Ki stood at 2.1 nM in assay [1], 0.0667 nM in assay [2] and 114 nM in assay [3].

B10: Example 333 (peptide)
peptide: YXEGTFTSDYSIXLDKKAQXEFIEYLIEGGPSSGAPPPS
modifications: Aib2; αMeL13; K17((2-[2-(2-Amino-ethoxy)-ethoxy]-acetyl)2-(γ-Glu)-CO-(CH2)18-CO2H); Aib20; C-terminal NH2
Consider B10, for which the Ki stood at 4.25 nM in assay [1], 0.0634 nM in assay [2] and 578 nM in assay [3].

Values taken from patent US20200024322A1 (Eli Lilly, published 2020).
